Measurements published in the supplement of paper PMC6755084.

What follows are sequences tested on F1*sub RNA substrate (template-directed ligation) (assay: fraction ligated after 30 min (ligated reads / total reads); higher = more ligase activity; sequences stand for … in GAGACCGCAACTGAAAAGTTGT…AGTTCTGCACGTAGAAGCAAAAGGC). Details: 42 °C.
Protocol: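 Chip-synthesised pool of F1* ligase ribozyme variants (all single and double substitutions, single, double and triple deletions in the catalytic core and GAA bulge, plus designed variants) was transcribed with T7 and reacted as a pool with excess substrate F1*sub for 30 min at 42 C in 50 mM EPPS pH 8.5, 25 mM MgCl2. Ligated and unligated bands were separated by PAGE, barcoded by RT and deep sequenced; fraction ligated = ligated reads / total reads per variant, relative activity = FL / FL of wild type (0.826). Sequences are the DNA template of the ribozyme.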
Work on TACACTTGCGTAAGACACTTTGGATGGGTTG [3d616] yielded a fraction ligated of 0.118.
Work on TACACTTGCGTAAGACACTTTGGATGGGTTGA [2d52] yielded a fraction ligated of 0.115.
TACACTTGCGTAAGACACTTTGGATGGTTGA [3d614] gave a fraction ligated of 0.102.
With TACACTTGCGTAAGACACTTTGGTGGGTTGA [3d612] the fraction ligated was 0.0235.
Work on TACACTTGCGTAAGACATTTGGATGGGTTGA [3d609] yielded a fraction ligated of 0.422.
With TACACTTGCGTAAGACCTTTGGATGGGTTGA [3d608] the fraction ligated was 0.0714.
In the case of TACACTTGCGTAAGCACTTTGGATGGGTTGA [3d606], the fraction ligated is reported as 0.764.
Work on TACACTTGCGTAGACACTTTGGATGGGTTGA [3d604] yielded a fraction ligated of 0.0967.
TACACTTGCTAAGACACTTTGGATGGGTTGA [3d602] showed a fraction ligated of 0.196.
TACACTTGGTAAGACACTTTGGATGGGTTGA [3d601] showed a fraction ligated of 0.0847.
TACACTTGTCAAGACACTTTGGATGGGTTGA [3d632] gave a fraction ligated of 0.167.
Sequence TACACTTGTCGAAACACTTTGGATGGGTTGA [3d647] has a fraction ligated of 0.16.
TACACTTGTCGAAGAACTTTGGATGGGTTGA [3d649] showed a fraction ligated of 0.195.
For TACACTTGTCGAAGACACTTGGATGGGTTGA [3d652], the fraction ligated was 0.109.
Work on TACACTTGTCGAAGACACTTTGATGGGTTGA [3d653] yielded a fraction ligated of 0.0665.
Work on TACACTTGTCGAAGACACTTTGGAGGGTTGA [3d655] yielded a fraction ligated of 0.126.
Work on TACACTTGTCGAAGACACTTTGGATGGGTTA [3d657] yielded a fraction ligated of 0.13.
Work on TACACTTGTCGAAGACACTTTGGATGGGTTG [3d658] yielded a fraction ligated of 0.593.
Sequence TACACTTGTCGAAGACACTTTGGATGGGTTGA [2d55] has a fraction ligated of 0.603.
For TACACTTGTCGAAGACACTTTGGATGGTTGA [3d656], the fraction ligated was 0.505.
Work on TACACTTGTCGAAGACACTTTGGTGGGTTGA [3d654] yielded a fraction ligated of 0.115.
For TACACTTGTCGAAGACATTTGGATGGGTTGA [3d651], the fraction ligated was 0.444.
For TACACTTGTCGAAGACCTTTGGATGGGTTGA [3d650], the fraction ligated was 0.1.
TACACTTGTCGAAGCACTTTGGATGGGTTGA [3d648] was tested, and the fraction ligated was 0.134.
In the case of TACACTTGTCGAGACACTTTGGATGGGTTGA [3d646], the fraction ligated is reported as 0.195.
In the case of TACACTTGTCGTAAAACTTTGGATGGGTTGA [3d672], the fraction ligated is reported as 0.0463.
TACACTTGTCGTAAACACTTGGATGGGTTGA [3d675] gave a fraction ligated of 0.0236.
TACACTTGTCGTAAACACTTTGATGGGTTGA [3d676] was tested, and the fraction ligated was 0.0132.
TACACTTGTCGTAAACACTTTGGAGGGTTGA [3d678] showed a fraction ligated of 0.0486.
In the case of TACACTTGTCGTAAACACTTTGGATGGGTTA [3d680], the fraction ligated is reported as 0.00723.
TACACTTGTCGTAAACACTTTGGATGGGTTG [3d681] was tested, and the fraction ligated was 0.0503.
Sequence TACACTTGTCGTAAACACTTTGGATGGGTTGA [2d57] has a fraction ligated of 0.0886.
TACACTTGTCGTAAACACTTTGGATGGTTGA [3d679] was tested, and the fraction ligated was 0.101.
With TACACTTGTCGTAAACACTTTGGTGGGTTGA [3d677] the fraction ligated was 0.0298.
TACACTTGTCGTAAACATTTGGATGGGTTGA [3d674] showed a fraction ligated of 0.457.
In the case of TACACTTGTCGTAAACCTTTGGATGGGTTGA [3d673], the fraction ligated is reported as 0.0569.
With TACACTTGTCGTAACACTTTGGATGGGTTGA [3d660] the fraction ligated was 0.00473.
TACACTTGTCGTAAGAACTTGGATGGGTTGA [3d693] gave a fraction ligated of 0.00498.
TACACTTGTCGTAAGAACTTTGATGGGTTGA [3d694] showed a fraction ligated of 0.00588.
TACACTTGTCGTAAGAACTTTGGAGGGTTGA [3d696] gave a fraction ligated of 0.0171.
TACACTTGTCGTAAGAACTTTGGATGGGTTA [3d698] was tested, and the fraction ligated was 0.00405.
TACACTTGTCGTAAGAACTTTGGATGGGTTG [3d699] gave a fraction ligated of 0.00593.
With TACACTTGTCGTAAGAACTTTGGATGGGTTGA [2d59] the fraction ligated was 0.0167.
With TACACTTGTCGTAAGAACTTTGGATGGTTGA [3d697] the fraction ligated was 0.0122.
TACACTTGTCGTAAGAACTTTGGTGGGTTGA [3d695] showed a fraction ligated of 0.0304.
TACACTTGTCGTAAGAATTTGGATGGGTTGA [3d692] was tested, and the fraction ligated was 0.123.
In the case of TACACTTGTCGTAAGACACTGGATGGGTTGA [3d714], the fraction ligated is reported as 0.191.
TACACTTGTCGTAAGACACTTGATGGGTTGA [3d715] gave a fraction ligated of 0.0512.
TACACTTGTCGTAAGACACTTGGAGGGTTGA [3d717] showed a fraction ligated of 0.0172.
In the case of TACACTTGTCGTAAGACACTTGGATGGGTTA [3d719], the fraction ligated is reported as 0.0331.
In the case of TACACTTGTCGTAAGACACTTGGATGGGTTG [3d720], the fraction ligated is reported as 0.106.
Work on TACACTTGTCGTAAGACACTTGGATGGGTTGA [2d62] yielded a fraction ligated of 0.183.
Sequence TACACTTGTCGTAAGACACTTGGATGGTTGA [3d718] has a fraction ligated of 0.0649.
Work on TACACTTGTCGTAAGACACTTGGTGGGTTGA [3d716] yielded a fraction ligated of 0.0903.
TACACTTGTCGTAAGACACTTTATGGGTTGA [3d721] was tested, and the fraction ligated was 0.0103.
For TACACTTGTCGTAAGACACTTTGAGGGTTGA [3d723], the fraction ligated was 0.0442.
TACACTTGTCGTAAGACACTTTGATGGGTTA [3d725] showed a fraction ligated of 0.0317.
Work on TACACTTGTCGTAAGACACTTTGATGGGTTG [3d726] yielded a fraction ligated of 0.0988.
TACACTTGTCGTAAGACACTTTGATGGGTTGA [2d63] was tested, and the fraction ligated was 0.194.
With TACACTTGTCGTAAGACACTTTGATGGTTGA [3d724] the fraction ligated was 0.0498.
TACACTTGTCGTAAGACACTTTGGAGGGTTA [3d732] was tested, and the fraction ligated was 0.0323.
In the case of TACACTTGTCGTAAGACACTTTGGAGGGTTG [3d733], the fraction ligated is reported as 0.0821.
In the case of TACACTTGTCGTAAGACACTTTGGAGGGTTGA [2d65], the fraction ligated is reported as 0.182.
TACACTTGTCGTAAGACACTTTGGAGGTTGA [3d731] gave a fraction ligated of 0.
TACACTTGTCGTAAGACACTTTGGATGGGTT [3d736] gave a fraction ligated of 0.00884.
TACACTTGTCGTAAGACACTTTGGATGGGTTA [2d67] showed a fraction ligated of 0.274.
With TACACTTGTCGTAAGACACTTTGGATGGGTTG [2d68] the fraction ligated was 0.758.
For TACACTTGTCGTAAGACACTTTGGATGGGTTGA [1d3], the fraction ligated was 0.748.
TACACTTGTCGTAAGACACTTTGGATGGTTA [3d734] gave a fraction ligated of 0.405.
Sequence TACACTTGTCGTAAGACACTTTGGATGGTTG [3d735] has a fraction ligated of 0.507.
TACACTTGTCGTAAGACACTTTGGATGGTTGA [2d66] was tested, and the fraction ligated was 0.644.
With TACACTTGTCGTAAGACACTTTGGGGGTTGA [3d727] the fraction ligated was 0.0616.
TACACTTGTCGTAAGACACTTTGGTGGGTTA [3d729] showed a fraction ligated of 0.00637.
TACACTTGTCGTAAGACACTTTGGTGGGTTG [3d730] was tested, and the fraction ligated was 0.035.
Work on TACACTTGTCGTAAGACACTTTGGTGGGTTGA [2d64] yielded a fraction ligated of 0.153.
Work on TACACTTGTCGTAAGACACTTTGGTGGTTGA [3d728] yielded a fraction ligated of 0.0111.
For TACACTTGTCGTAAGACACTTTGTGGGTTGA [3d722], the fraction ligated was 0.115.
With TACACTTGTCGTAAGACATTGGATGGGTTGA [3d707] the fraction ligated was 0.239.
Sequence TACACTTGTCGTAAGACATTTGATGGGTTGA [3d708] has a fraction ligated of 0.0186.
For TACACTTGTCGTAAGACATTTGGAGGGTTGA [3d710], the fraction ligated was 0.0254.
For TACACTTGTCGTAAGACATTTGGATGGGTTA [3d712], the fraction ligated was 0.0725.
With TACACTTGTCGTAAGACATTTGGATGGGTTG [3d713] the fraction ligated was 0.324.
TACACTTGTCGTAAGACATTTGGATGGGTTGA [2d61] gave a fraction ligated of 0.472.
With TACACTTGTCGTAAGACATTTGGATGGTTGA [3d711] the fraction ligated was 0.113.
